Target: T1, GST-GSNOR (GST-tagged full-length GSNOR) (Arabidopsis thaliana, UniProt Q96533 1-379)
T1 construct: Arabidopsis thaliana S-nitrosoglutathione reductase (GSNOR, At5g43940), full-length cDNA; source: E. coli BL21, purified
Test: far-Western, overlay or dot blot; 1 μg of each purified GST fusion protein separated by 10% SDS-PAGE and transferred to a PVDF membrane; blot probed with 1 μg CaM4-His in 10 ml TBST with 0.1 mM CaCl2 (or 0.1 mM EGTA, with which the binding became weaker); detected with anti-His antibody
Details: both partners purified

T1 sequence (Q96533 whole entry): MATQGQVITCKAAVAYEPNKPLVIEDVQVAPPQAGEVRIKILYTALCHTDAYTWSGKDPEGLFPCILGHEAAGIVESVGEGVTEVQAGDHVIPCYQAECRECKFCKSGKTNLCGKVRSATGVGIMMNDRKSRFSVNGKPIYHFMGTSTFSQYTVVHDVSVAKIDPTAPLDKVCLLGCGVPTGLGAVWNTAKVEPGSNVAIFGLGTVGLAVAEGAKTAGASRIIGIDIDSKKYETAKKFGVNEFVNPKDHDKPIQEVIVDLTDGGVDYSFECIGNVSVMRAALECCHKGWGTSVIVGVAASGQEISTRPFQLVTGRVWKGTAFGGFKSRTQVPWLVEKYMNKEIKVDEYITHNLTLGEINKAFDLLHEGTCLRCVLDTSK

B1: CaM4-His (natural protein)
chain: not shown
notes: Arabidopsis thaliana calmodulin 4 (AtCaM4, At1g66410); AtCaM1 and AtCaM4 encode the same protein; also called CaM-His; AtCaM4; source: E. coli BL21, purified; not shown: His6, C-terminal, kept
B1: binds.
